Results published in patent US6998240B2, “Screen for selective inhibitors or activators of Smad protein function” (Wisconsin Alumni Research Foundation, priority 2001, dated 2006).
pIC50: −log10 of the molar value. Each block holds one substance with its values, some of them ahead of it.

Assays:
[1] = target: phosphorylated Smad2 (His-tagged, full length, from Sf9 cells co-infected with Alk5 T204D virus) (UniProt Q15796); experiment: HTRF competition against 500 nM biotinylated FAST peptide
[2] = target: T1, Phosphorylated Smad2/4 Complex (Homo sapiens, UniProt Q15796); experiment: microplate solid-phase assay; Smad2P4 0.50 ug/well; biotinylated GST-CBP 1:500
[3] = target: T1, Phosphorylated Smad2/4 Complex; experiment: microplate solid-phase assay; Smad2P4 0.25 ug/well; biotinylated GST-CBP 1:2000
[4] = target: T1, Phosphorylated Smad2/4 Complex; experiment: microplate solid-phase assay; Smad2P4 0.125 ug/well; biotinylated GST-CBP 1:1000
[5] = target: T1, Phosphorylated Smad2/4 Complex; experiment: microplate solid-phase assay; Smad2P4 0.50 ug/well; biotinylated GST-CBP 1:1000
[6] = target: T1, Phosphorylated Smad2/4 Complex; experiment: microplate solid-phase assay; Smad2P4 0.25 ug/well; biotinylated GST-CBP 1:2000, duplicate well
[7] = target: T1, Phosphorylated Smad2/4 Complex; experiment: microplate solid-phase assay; Smad2P4 0.50 ug/well; biotinylated GST-CBP 1:500, duplicate well
[8] = target: T1, Phosphorylated Smad2/4 Complex; experiment: microplate solid-phase assay; Smad2P4 0.50 ug/well; biotinylated GST-CBP 1:2000
[9] = target: T1, Phosphorylated Smad2/4 Complex; experiment: microplate solid-phase assay; Smad2P4 0.25 ug/well; biotinylated GST-CBP 1:500
[10] = target: unphosphorylated Smad2 (His-tagged, full length) (UniProt Q15796); experiment: microplate solid-phase assay; Smad2 0.25 ug/well; biotinylated GST-CBP 1:1000, duplicate well
[11] = target: T1, Phosphorylated Smad2/4 Complex; experiment: microplate solid-phase assay; Smad2P4 0.50 ug/well; biotinylated GST-CBP 1:2000, duplicate well
[12] = target: unphosphorylated Smad2 (His-tagged, full length) (UniProt Q15796); experiment: microplate solid-phase assay; Smad2 0.50 ug/well; biotinylated GST-CBP 1:2000, duplicate well
[13] = target: unphosphorylated Smad2 (His-tagged, full length) (UniProt Q15796); experiment: microplate solid-phase assay; Smad2 0.50 ug/well; biotinylated GST-CBP 1:1000, duplicate well
[14] = target: T1, Phosphorylated Smad2/4 Complex; experiment: microplate solid-phase assay; Smad2P4 0.125 ug/well; biotinylated GST-CBP 1:2000, duplicate well
[15] = target: unphosphorylated Smad2 (His-tagged, full length) (UniProt Q15796); experiment: microplate solid-phase assay; Smad2 0.25 ug/well; biotinylated GST-CBP 1:2000, duplicate well
[16] = target: unphosphorylated Smad2 (His-tagged, full length) (UniProt Q15796); experiment: microplate solid-phase assay; Smad2 0.50 ug/well; biotinylated GST-CBP 1:500
[17] = target: T1, Phosphorylated Smad2/4 Complex; experiment: microplate solid-phase assay; Smad2P4 0.125 ug/well; biotinylated GST-CBP 1:500, duplicate well
[18] = target: T1, Phosphorylated Smad2/4 Complex; experiment: microplate solid-phase assay; Smad2P4 0.25 ug/well; biotinylated GST-CBP 1:1000
[19] = target: T1, Phosphorylated Smad2/4 Complex; experiment: microplate solid-phase assay, biotinylated GST-CBP, streptavidin-AP
[20] = target: T1, Phosphorylated Smad2/4 Complex; experiment: microplate solid-phase assay; Smad2P4 0.125 ug/well; biotinylated GST-CBP 1:1000, duplicate well
[21] = target: T1, Phosphorylated Smad2/4 Complex; experiment: microplate solid-phase assay; Smad2P4 0.125 ug/well; biotinylated GST-CBP 1:500
[22] = target: T1, Phosphorylated Smad2/4 Complex; experiment: microplate solid-phase assay; Smad2P4 0.125 ug/well; biotinylated GST-CBP 1:2000
[23] = target: T1, Phosphorylated Smad2/4 Complex; experiment: microplate solid-phase assay; Smad2P4 0.25 ug/well; biotinylated GST-CBP 1:1000, duplicate well
[24] = target: unphosphorylated Smad2 (His-tagged, full length) (UniProt Q15796); experiment: microplate solid-phase assay; Smad2 0.50 ug/well; biotinylated GST-CBP 1:2000
[25] = target: unphosphorylated Smad2 (His-tagged, full length) (UniProt Q15796); experiment: microplate solid-phase assay; Smad2 0.25 ug/well; biotinylated GST-CBP 1:500
[26] = target: unphosphorylated Smad2 (His-tagged, full length) (UniProt Q15796); experiment: microplate solid-phase assay; Smad2 0.25 ug/well; biotinylated GST-CBP 1:1000
[27] = target: unphosphorylated Smad2 (His-tagged, full length) (UniProt Q15796); experiment: microplate solid-phase assay; Smad2 0.25 ug/well; biotinylated GST-CBP 1:500, duplicate well
[28] = target: unphosphorylated Smad2 (His-tagged, full length) (UniProt Q15796); experiment: microplate solid-phase assay; Smad2 0.25 ug/well; biotinylated GST-CBP 1:2000
[29] = target: T1, Phosphorylated Smad2/4 Complex; experiment: microplate solid-phase assay; Smad2P4 0.25 ug/well; biotinylated GST-CBP 1:500, duplicate well
[30] = target: unphosphorylated Smad2 (His-tagged, full length) (UniProt Q15796); experiment: microplate solid-phase assay; Smad2 0.50 ug/well; biotinylated GST-CBP 1:500, duplicate well
[31] = target: T1, Phosphorylated Smad2/4 Complex; experiment: microplate solid-phase assay; Smad2P4 0.50 ug/well; biotinylated GST-CBP 1:1000, duplicate well
[32] = target: unphosphorylated Smad2 (His-tagged, full length) (UniProt Q15796); experiment: microplate solid-phase assay; Smad2 0.50 ug/well; biotinylated GST-CBP 1:1000
[33] = target: phosphorylated Smad2 (His-tagged, full length, from Sf9 cells co-infected with Alk5 T204D virus) (UniProt Q15796); experiment: HTRF, biotin-FAST binding to Smad2-P, no inhibitor

pIC50 [1]: 6.60
Substance: GST-trx-FAST fusion protein (FAST SIM peptide aptamer on thioredoxin scaffold) (from UniProt O75593 327-350) (designed binder)

relative light units (RLU) [2]: 358000 RLU
relative light units (RLU) [3]: 176000 RLU
relative light units (RLU) [4]: 82900 RLU
relative light units (RLU) [5]: 306000 RLU
relative light units (RLU) [6]: 162000 RLU
relative light units (RLU) [7]: 236000 RLU
relative light units (RLU) [8]: 303000 RLU
relative light units (RLU) [9]: 204000 RLU
relative light units (RLU) [10]: 7830 RLU
relative light units (RLU) [11]: 285000 RLU
relative light units (RLU) [12]: 11000 RLU
relative light units (RLU) [13]: 23500 RLU
relative light units (RLU) [14]: 85100 RLU
relative light units (RLU) [15]: 4340 RLU
relative light units (RLU) [16]: 26600 RLU
relative light units (RLU) [17]: 74300 RLU
relative light units (RLU) [18]: 181000 RLU
fold more CBP bound than by an equivalent amount of unphosphorylated Smad [19]: > 30 fold
relative light units (RLU) [20]: 82300 RLU
relative light units (RLU) [21]: 72000 RLU
relative light units (RLU) [22]: 82200 RLU
relative light units (RLU) [23]: 182000 RLU
relative light units (RLU) [24]: 11300 RLU
relative light units (RLU) [25]: 11100 RLU
relative light units (RLU) [26]: 6680 RLU
relative light units (RLU) [27]: 8900 RLU
relative light units (RLU) [28]: 6600 RLU
relative light units (RLU) [29]: 191000 RLU
relative light units (RLU) [30]: 26300 RLU
relative light units (RLU) [31]: 323000 RLU
relative light units (RLU) [32]: 23000 RLU
Substance: biotinylated GST-CBP protein (from UniProt P08515 1-218)

Average Normalized Counts [33]: 1880 counts
Substance: biotinylated FAST peptide (24 mer, Smad interaction motif of human FAST) (from UniProt O75593 327-350)
